Patent publication US20240383953A1, “NOVEL NAN[…] NANOG PRION-LIKE REPEATS” (BAYLOR COLLEGE OF MEDICINE, priority 2021, published 2024)

Assays:
[1] = Gel-like condensate formation of NANOG CTD; type: physicochemical, human; conditions: absence of crowding agents
[2] = ThT fluorescence aggregation kinetics of NANOG CTD; type: physicochemical, human

B1: NANOG CTD: C-terminal domain construct of human NANOG, contains the WR prion-like domain (protein)
chain: QKNNWPKNSNGVTQKASAPTYPSLYSSYHQGCLVNPTGNLPMWSNQTWNNSTWSNQTQNIQSWSNHSWNTQTWCTQSWNNQAWNSPFYNCGEESLQSCMQFQPNSPASDLEAALEAAGEGLNVIQQTTRYFSTPQTMDLFLNYSMNMQPEDV
concentration at which gel-like condensates form [1]: 5 µM | ThT aggregation time constant (1/R) ([2]; 1.2 μM CTD (n=9)): 4.8 ± 0.2 min | ThT aggregation time constant (1/R) ([2]; 2.4 μM CTD (n=6)): 9.5 ± 0.1 min
